Assay [1] addresses T1, human soluble IL-4Rα (sIL-4Rα) (human, UniProt P24394 26-232).
T1 construct: Bought reagent (PEPRO TECH, Catalog Number 200-04R); also called shIL-4Rα; soluble hIL-4 Rα
T1 sequence: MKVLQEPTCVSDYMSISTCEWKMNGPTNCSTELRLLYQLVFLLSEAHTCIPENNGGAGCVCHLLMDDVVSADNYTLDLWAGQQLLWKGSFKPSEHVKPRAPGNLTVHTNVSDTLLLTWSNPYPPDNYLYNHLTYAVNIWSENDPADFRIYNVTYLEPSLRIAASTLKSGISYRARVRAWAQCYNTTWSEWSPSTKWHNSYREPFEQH
Put plainly: ELISA, coated sIL-4Rα, culture supernatant. As for the experimental part:
100 μl of 100 μg/ml sIL-4Rα solution was added to 9.90 ml of PBS, mixed up and down, and then an antigen coating buffer of 1.0 μg/ml was obtained. The prepared antigen coating buffer was added to a 96-well ELISA plate (Corning) with a volume of 100 μl per well. The 96-well ELISA plate was incubated overnight in a refrigerator at 4° C. On the next day; the solution therein was discarded; and PBS containing 2% BSA was added to the 96-well ELISA plate row by row with a volume of 300 μl per well. The 96-well ELISA plate was incubated for 2 hours in a refrigerator at 4° C., Then the PBS containing 2% BSA was discarded and the plate was washed 3 times with PBST. Diluted antibodies to be tested were sequentially added to the corresponding wells, while the normal cell culture supernatants, as negative control samples, were added too. Three duplicate wells were made for each sample with a volume of 100 μl per well. The ELISA plate was wrapped with preservative film (or covered) and incubated for 1 h at […] in a constant temperature incubator. Subsequently, the 96-well ELISA plate was taken out, and the solution therein was discarded. After washing with PBST for 3 times, TMB solution (Solarbio, Catalog Number: PR1200) was added to the 96-well ELISA plate row by row with a volume of 100 μl per well. The 96-well ELISA plate was placed at room temperature for 5 minutes, and 2 M H2SO4 solution was added in immediately to terminate the reaction. The 96-well ELISA plate was placed in flexstation 3 (Molecular Devices), the values of OD450 were read, and the data were collected, calculated and analyzed. Results were expressed relative to the affinity of control antibody 1.
Background: In an ELISA, binding on a coated surface is turned into a signal by an enzyme label.

For assay [2], the target named is T2, IL-4Rα on TF-1 cells (human, UniProt P24394 26-825).
T2 sequence (looked up): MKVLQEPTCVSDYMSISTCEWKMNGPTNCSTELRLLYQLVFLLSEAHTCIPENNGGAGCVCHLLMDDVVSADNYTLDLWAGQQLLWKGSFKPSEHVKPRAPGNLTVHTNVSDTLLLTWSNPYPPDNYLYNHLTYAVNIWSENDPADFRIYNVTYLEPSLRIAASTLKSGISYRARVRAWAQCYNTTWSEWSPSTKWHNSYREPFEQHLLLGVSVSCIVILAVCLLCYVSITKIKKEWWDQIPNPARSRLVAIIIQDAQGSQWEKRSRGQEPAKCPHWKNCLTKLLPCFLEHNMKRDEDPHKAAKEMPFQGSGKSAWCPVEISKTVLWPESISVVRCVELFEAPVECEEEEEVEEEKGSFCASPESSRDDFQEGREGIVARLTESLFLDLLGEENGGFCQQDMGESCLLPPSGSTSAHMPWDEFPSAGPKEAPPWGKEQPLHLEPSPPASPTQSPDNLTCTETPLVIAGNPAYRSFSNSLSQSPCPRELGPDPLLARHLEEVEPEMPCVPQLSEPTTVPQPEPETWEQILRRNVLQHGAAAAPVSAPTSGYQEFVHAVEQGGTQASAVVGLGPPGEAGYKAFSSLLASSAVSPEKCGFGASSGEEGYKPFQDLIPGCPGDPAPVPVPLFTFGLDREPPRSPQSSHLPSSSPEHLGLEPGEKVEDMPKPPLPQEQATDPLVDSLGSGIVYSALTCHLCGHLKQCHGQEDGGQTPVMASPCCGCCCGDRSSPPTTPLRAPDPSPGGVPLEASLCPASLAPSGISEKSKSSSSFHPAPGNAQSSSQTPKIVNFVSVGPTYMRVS
As to the kind of experiment: cell-based or functional assay.

The target in assay [3] is T2, IL-4Rα on TF-1 cells. Put plainly: cell-based or functional assay. The source holds these as a separate data set.

Consider 13 molecules from patent publication US20190177408A1 (SUZHOU CONNECT BIOPHARMACEUTICALS, published 2019).

Like-named read-outs stand apart in the source and are kept apart here.

B1: L1001H1000 (antibody, V domains shown)
VH: EVQLVQSGGGLVHPGGSLRLSCAGSGFTFSRNAMFWVRQAPGKGLEWVSGIGTGGATNYADSVKGRFTISRDNAKNSLYLQMNSLRAEDMAVYYCARGRYYFDYWGQGTLVTVSS
VL: EIVLTQSPGTLSLSPGERATLSCRASQSVSNSYLAWYQQKPGQAPRLLIYGASSRAPGIPDRFSGSGSGTDFTLTISRLEPEDFAVYYCQQYDHSAGWTFGQGTKVEIK
notes: human kappa
Regarding B1, the “OD 450/OD450Control antibody 1” value in assay [1] stood at 1.56. Moreover, in assay [2], the “Inhibitory rate on pro-proliferative effect of IL-4” value (“Inhibitory rate … of IL-4” for short) turned out to be 0.98 and the “Inhibitory rate on pro-proliferative effect of IL-13” value (“Inhibitory rate … of IL-13” for short) came to 0.85.

B2: L1021H1029 (antibody, V domains shown)
VH: EVQLVESGGGLVQPGGSLRLSCAASGFTFSRNAMFWVRQAPGKGLEWVSGIGTGGATSYADSVKGRFTISRDNAKNSLYLQMNSLRAEDMAVYYCARGRYYFPWWGQGTLVTVSS
VL: EIVLTQSPGTLSLSPGERATLSCRASQSVSSSYLAWYQQKPGQAPRLLIFGASSRAPGIPDRFSGSGSGTDFTLTISRLEPEDFAVYYCQQYDHSAGWTFGQGTKVEIK
notes: human kappa
In the case of B2, the “OD 450/OD450Control antibody 1” value in assay [1] came out at 1. In assay [2], the “Inhibitory rate … of IL-4” value stood at 1.02 and the “Inhibitory rate … of IL-13” value was 0.92.

B3: L1021H1007 (antibody, V domains shown)
VH: EVQLVQSGGGLVHPGGSLRLSCAGSGFTFSRNAMFWVRQAPGKGLEWVSGIGTGGATSYADSVKGRFTISRDNAKNSLYLQMNSLRAEDMAVYYCARGRYYFDYWGQGTLVTVSS
VL: EIVLTQSPGTLSLSPGERATLSCRASQSVSSSYLAWYQQKPGQAPRLLIFGASSRAPGIPDRFSGSGSGTDFTLTISRLEPEDFAVYYCQQYDHSAGWTFGQGTKVEIK
notes: human kappa
Take B3: in assay [1], the “OD 450/OD450Control antibody 1” value was determined as 0.44. In addition, in assay [2], the “Inhibitory rate … of IL-4” value came to 1 and the “Inhibitory rate … of IL-13” value is 0.86.

B4: L1024H1031 (antibody, V domains shown)
VH: EVQLVESGGGLVQPGGSLRLSCAASGFTFSRNAMFWVRQAPGKGLEWVSGIGTGGATSYADSVKGRFTISRDNAKNSLYLQMNSLRAEDTAVYYCARGRYYFDYWGQGTLVTVSS
VL: EIVLTQSPGTLSLSPGERATLSCRASQSVSNSYLAWYQQKPGQAPRLLIFGASSRAPGIPDRFSGSGSGTDFTLTISRLEPEDFAVYYCQQYDHSAGWTFGQGTKVEIK
notes: human kappa
Regarding B4, the “OD 450/OD450Control antibody 1” value in assay [1] is 0.9. Besides, in assay [2], the “Inhibitory rate … of IL-4” value was 1.01 and the “Inhibitory rate … of IL-13” value was determined as 0.94.

B5: L1022H1000 (antibody, V domains shown)
VH: EVQLVQSGGGLVHPGGSLRLSCAGSGFTFSRNAMFWVRQAPGKGLEWVSGIGTGGATNYADSVKGRFTISRDNAKNSLYLQMNSLRAEDMAVYYCARGRYYFDYWGQGTLVTVSS
VL: EIVLTQSPGTLSLSPGERATLSCRASQSVSNSYLAWYQQKPGQAPRLLIYGASSRATGIPDRFSGSGSGTDFTLTISRLEPEDFAVYYCQQYDHSAGWTFGQGTKVEIK
notes: human kappa
Take B5: in assay [1], the “OD 450/OD450Control antibody 1” value came out at 0.16. In addition, in assay [3], the “Inhibitory rate … of IL-4” value was -0.05 and the “Inhibitory rate … of IL-13” value was found to be 0.02.

B6: L1023H1000 (antibody, V domains shown)
VH: EVQLVQSGGGLVHPGGSLRLSCAGSGFTFSRNAMFWVRQAPGKGLEWVSGIGTGGATNYADSVKGRFTISRDNAKNSLYLQMNSLRAEDMAVYYCARGRYYFDYWGQGTLVTVSS
VL: EIVLTQSPGTLSLSPGERATLSCRASQSVSSSYLAWYQQKPGQAPRLLIYGASSRAPGIPDRFSGSGSGTDFTLTISRLEPEDFAVYYCQQYDHSAGWTFGQGTKVEIK
For the molecule B6, in assay [3], the “Inhibitory rate … of IL-4” value is 0.26 and the “Inhibitory rate … of IL-13” value was determined as 0.07.

B7: L1021H1027 (antibody, V domains shown)
VH: EVQLVESGGGLVHPGGSLRLSCAASGFTFSRNAMFWVRQAPGKGLEWVSGIGTGGATSYADSVKGRFTISRDNAKNSLYLQMNSLRAEDTAVYYCARGRYYFPWWGQGTLVTVSS
VL: EIVLTQSPGTLSLSPGERATLSCRASQSVSSSYLAWYQQKPGQAPRLLIFGASSRAPGIPDRFSGSGSGTDFTLTISRLEPEDFAVYYCQQYDHSAGWTFGQGTKVEIK
notes: human kappa
Turning to B7, in assay [1], the “OD 450/OD450Control antibody 1” value was 0.29. Besides, in assay [2], the “Inhibitory rate … of IL-4” value came to 1.02 and the “Inhibitory rate … of IL-13” value worked out at 0.94.

B8: L1024H1000 (antibody, V domains shown)
VH: EVQLVQSGGGLVHPGGSLRLSCAGSGFTFSRNAMFWVRQAPGKGLEWVSGIGTGGATNYADSVKGRFTISRDNAKNSLYLQMNSLRAEDMAVYYCARGRYYFDYWGQGTLVTVSS
VL: EIVLTQSPGTLSLSPGERATLSCRASQSVSNSYLAWYQQKPGQAPRLLIFGASSRAPGIPDRFSGSGSGTDFTLTISRLEPEDFAVYYCQQYDHSAGWTFGQGTKVEIK
notes: human kappa
With B8, in assay [1], the “OD 450/OD450Control antibody 1” value came to 0.69. Besides, in assay [3], the “Inhibitory rate … of IL-4” value stood at 0.44 and the “Inhibitory rate … of IL-13” value turned out to be 0.39.

B9: L1021H1000 (antibody, V domains shown)
VH: EVQLVQSGGGLVHPGGSLRLSCAGSGFTFSRNAMFWVRQAPGKGLEWVSGIGTGGATNYADSVKGRFTISRDNAKNSLYLQMNSLRAEDMAVYYCARGRYYFDYWGQGTLVTVSS
VL: EIVLTQSPGTLSLSPGERATLSCRASQSVSSSYLAWYQQKPGQAPRLLIFGASSRAPGIPDRFSGSGSGTDFTLTISRLEPEDFAVYYCQQYDHSAGWTFGQGTKVEIK
notes: human kappa
Regarding B9, the “OD 450/OD450Control antibody 1” value in assay [1] was found to be 2.42. Also, in assay [2], the “Inhibitory rate … of IL-4” value stood at 0.95 and the “Inhibitory rate … of IL-13” value was found to be 0.78.

B10: L1020H1020 (antibody, V domains shown)
VH: EVQLVQSGGGLVHPGGSLRLSCAGSGFTFSRNAMFWVRQAPGKGLEWVSGIGTGGATSYADSVKGRFTISRDNAKNSLYLQMNSLRAEDMAVYYCARGRYYFPWWGQGTLVTVSS
VL: EIVLTQSPGTLSLSPGERATLSCRASQSVSSSYLAWYQQKPGQAPRLLIYGASSRATGIPDRFSGSGSGTDFTLTISRLEPEDFAVYYCQQYDHSAGWTFGQGTKVEIK
notes: human kappa
Turning to B10, the “OD 450/OD450Control antibody 1” value in assay [1] was 0.26.

B11: L1019H1000 (antibody, V domains shown)
VH: EVQLVQSGGGLVHPGGSLRLSCAGSGFTFSRNAMFWVRQAPGKGLEWVSGIGTGGATNYADSVKGRFTISRDNAKNSLYLQMNSLRAEDMAVYYCARGRYYFDYWGQGTLVTVSS
VL: EIVLTQSPGTLSLSPGERATLSCRASQSVSNSYLAWYQQKPGQAPRLLIFGASSRATGIPDRFSGSGSGTDFTLTISRLEPEDFAVYYCQQYDHSAGWTFGQGTKVEIK
notes: human kappa
For the molecule B11, in assay [1], the “OD 450/OD450Control antibody 1” value was 1.79. Moreover, in assay [3], the “Inhibitory rate … of IL-4” value worked out at 0.72 and the “Inhibitory rate … of IL-13” value was 0.49.

B12: L1020H1031 (antibody, V domains shown)
VH: EVQLVESGGGLVQPGGSLRLSCAASGFTFSRNAMFWVRQAPGKGLEWVSGIGTGGATSYADSVKGRFTISRDNAKNSLYLQMNSLRAEDTAVYYCARGRYYFDYWGQGTLVTVSS
VL: EIVLTQSPGTLSLSPGERATLSCRASQSVSSSYLAWYQQKPGQAPRLLIYGASSRATGIPDRFSGSGSGTDFTLTISRLEPEDFAVYYCQQYDHSAGWTFGQGTKVEIK
notes: human kappa
In the case of B12, the “OD 450/OD450Control antibody 1” value in assay [1] is 1.12.

B13: L1020H1027 (antibody, V domains shown)
VH: EVQLVESGGGLVHPGGSLRLSCAASGFTFSRNAMFWVRQAPGKGLEWVSGIGTGGATSYADSVKGRFTISRDNAKNSLYLQMNSLRAEDTAVYYCARGRYYFPWWGQGTLVTVSS
VL: EIVLTQSPGTLSLSPGERATLSCRASQSVSSSYLAWYQQKPGQAPRLLIYGASSRATGIPDRFSGSGSGTDFTLTISRLEPEDFAVYYCQQYDHSAGWTFGQGTKVEIK
notes: human kappa
Take B13: the “OD 450/OD450Control antibody 1” value in assay [1] amounted to 0.4.
